Experimental data as given in PMC9335864 (Journal of the American Chemical Society, 2022).
Substitutions are numbered along the chain they refer to. Where two headings read alike, the source gives them in different places.

T1: p47-UBX domain (Homo sapiens, biotin (site not stated) where anchored on the BLI sensor tip)
T1 chain: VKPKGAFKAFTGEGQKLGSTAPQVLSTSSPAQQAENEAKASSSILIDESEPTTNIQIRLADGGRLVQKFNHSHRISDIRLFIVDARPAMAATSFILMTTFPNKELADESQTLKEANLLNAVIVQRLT

T2: p37-UBX domain (Homo sapiens)
T2 chain: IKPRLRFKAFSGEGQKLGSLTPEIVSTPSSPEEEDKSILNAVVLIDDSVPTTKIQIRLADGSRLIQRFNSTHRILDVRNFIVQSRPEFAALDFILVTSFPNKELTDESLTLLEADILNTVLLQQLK

T3: C-terminal Halo-tagged p47-UBX domain (Homo sapiens)
T3 chain: T1 chain

B1: scFv-A04 (antibody, V domains shown)
VH: QVQLVESGGGLVQPGGSLRLSCAASGFNVYSSSIHWVRQAPGKGLEWVASIYPSYGSTYYADSVKGRFTISADTSKNTAYLQMNSLRAEDTAVYYCARSYEWKYSYYRGGFDYWGQGTLVTVSS
VL: DIQMTQSPSSLSASVGDRVTITCRASQSVSSAVAWYQQKPGKAPKLLIYSASSLYSGVPSRFSGSRSGTDFTLTISSLQPEDFATYYCQQGYYLPVTFGQGTKVEIK
B2: scFab-E04 with C-terminal HA tag, expressed in cells (Fab, V domains shown)
VH: EVQLVESGGGLVQPGGSLRLSCAASGFNFSSYSIHWVRQAPGKGLEWVASISPYYGSTYYADSVKGRFTISADTSKNTAYLQMNSLRAEDTAVYYCARYKYYMSGRYTWALDYWGQGTLVTVSS
VL: B1 VL with G91E, Y92F, Y93F, L94V, V96F
B3: scFv-E04 with C-terminal HA tag, expressed in cells (scFv, V domains shown)
VH: B2 VH with E1Q
VL: B1 VL with G91E, Y92F, Y93F, L94V, V96F
B4: scFab-NLS E04 with C-terminal HA tag, expressed in cells (Fab, V domains shown)
VH: B2 VH
VL: B1 VL with G91E, Y92F, Y93F, L94V, V96F
B5: scFv-E04 (scFv, V domains shown)
VH: B2 VH with E1Q
VL: B1 VL with G91E, Y92F, Y93F, L94V, V96F
B6: scFv-A06 (scFv, V domains shown)
VH: QVQLVESGGGLVQPGGSLRLSCAASGFNISSYSMHWVRQAPGKGLEWVASISSSYGSTYYADSVKGRFTISADTSKNTAYLQMNSLRAEDTAVYYCARSDWYYGDAWGVPYYAFDYWGQGTLVTVSS
VL: DIQMTQSPSSLSASVGDRVTITCRASQSVGSALAWYQQKPGKAPKLLIYSASSLYSGVPSRFSGSRSGTDFTLTISSLQPEDFATYYCQQSWFLITFGQGTKVEIK
B7: scFv-B01 (scFv, V domains shown)
VH: QVQLVESGGGLVQPGGSLRLSCAASGFNISSYYMHWVRQAPGKGLEWVASIYPSYSSTSYADSVKGRFTISADTSKNTAYLQMNSLRAEDTAVYYCARSSDYDRYWYWSYDAFDYWGQGTLVTVSS
VL: B6 VL with F93D, I95F
B8: scFv-A06 with C-terminal HA tag, expressed in cells (scFv, V domains shown)
VH: B6 VH
VL: B6 VL
B9: scFab-NLS A06 with C-terminal HA tag, expressed in cells (Fab, V domains shown)
VH: B6 VH with Q1E
VL: B6 VL
B10: scFab-A06 with C-terminal HA tag, expressed in cells (Fab, V domains shown)
VH: B6 VH with Q1E
VL: B6 VL
B11: full-length p47 (natural protein, human, UniProt Q9UNZ2 1-370, looked up)
chain: MAAERQEALREFVAVTGAEEDRARFFLESAGWDLQIALASFYEDGGDEDIVTISQATPSSVSRGTAPSDNRVTSFRDLIHDQDEDEEEEEGQRFYAGGSERSGQQIVGPPRKKSPNELVDDLFKGAKEHGAVAVERVTKSPGETSKPRPFAGGGYRLGAAPEEESAYVAGEKRQHSSQDVHVVLKLWKSGFSLDNGELRSYQDPSNAQFLESIRRGEVPAELRRLAHGGQVNLDMEDHRDEDFVKPKGAFKAFTGEGQKLGSTAPQVLSTSSPAQQAENEAKASSSILIDESEPTTNIQIRLADGGRLVQKFNHSHRISDIRLFIVDARPAMAATSFILMTTFPNKELADESQTLKEANLLNAVIVQRLT
B12: scFv-G08 (scFv, V domains shown)
VH: QVQLVESGGGLVQPGGSLRLSCAASGFNISYSYIHWVRQAPGKGLEWVAYIYPYSGSTYYADSVKGRFTISADTSKNTAYLQMNSLRAEDTAVYYCARDPHWAMDYWGQGTLVTVSS
VL: DIQMTQSPSSLSASVGDRVTITCRASQSVGSALAWYQQKPGKAPKLLIYSASSLYSGVPSRFSGSRSGTDFTLTISSLQPEDFATYYCQQSFSSVPFTFGQGTKVEIK

Tests used:
p47-UBX domain [1] = target: T1, p47-UBX domain
p47 (endogenous) = p47 (endogenous) (human (endogenous in U2OS), UniProt Q9UNZ2); assay: co-IP; co-IP of p47 from lysates of U2OS cells transfected with plasmids for HA-tagged antibody fragments; p47-containing complexes captured and blotted; conditions: partners not purified
full-length p47 = full-length p47 (human, UniProt Q9UNZ2); assay: SPR; competition: as for p47-UBX but with full-length p47 on immobilised p97 (Figure S7); conditions: both partners purified
p47-UBX domain [2] = target: T1, p47-UBX domain; assay: BLI; biotinylated p47-UBX anchored on the sensor tip; increasing amounts of each scFv; dose-response profiles; conditions: both partners purified
p37-UBX domain = target: T2, p37-UBX domain; assay: BLI; selectivity of the scFvs against the p97-binding domains of other adaptor proteins (NPL4-UBXL, FAF1-UBX, p37-UBX) beside p47-UBX; set-up not told in the main text; conditions: both partners purified
p47-UBX domain [3] = target: T1, p47-UBX domain; assay: SPR; competition: biotinylated full-length p97 on a streptavidin chip; mixture of increasing concentrations of scFv and a fixed concentration of p47-UBX flowed over; with 100 uM ATP or 100 uM ADP; conditions: both partners purified
p97 (endogenous) = p97 (endogenous) (human (endogenous in U2OS), UniProt P55072); assay: co-IP; co-IP of p97 from U2OS cells expressing scFv-A06 (Figure S10); conditions: partners not purified
[4] = target: T3, C-terminal Halo-tagged p47-UBX domain; assay: FRET or BRET; NanoBRET in p47-knockout U2OS cells: Nanoluciferase-p97-N donor, p47-UBX-HaloTag acceptor, co-transfected with antibody-fragment or p47-FLAG plasmids; compared with scFv-RNase and scFab-RNase controls; conditions: partners not purified
full-length human p97 = full-length human p97 (human, UniProt P55072 1-806, biotin (site not stated)); assay: SPR; competition: as for p47-UBX but with full-length p47 on immobilised p97 (Figure S7); conditions: both partners purified
Chain of full-length human p97 (P55072 whole entry): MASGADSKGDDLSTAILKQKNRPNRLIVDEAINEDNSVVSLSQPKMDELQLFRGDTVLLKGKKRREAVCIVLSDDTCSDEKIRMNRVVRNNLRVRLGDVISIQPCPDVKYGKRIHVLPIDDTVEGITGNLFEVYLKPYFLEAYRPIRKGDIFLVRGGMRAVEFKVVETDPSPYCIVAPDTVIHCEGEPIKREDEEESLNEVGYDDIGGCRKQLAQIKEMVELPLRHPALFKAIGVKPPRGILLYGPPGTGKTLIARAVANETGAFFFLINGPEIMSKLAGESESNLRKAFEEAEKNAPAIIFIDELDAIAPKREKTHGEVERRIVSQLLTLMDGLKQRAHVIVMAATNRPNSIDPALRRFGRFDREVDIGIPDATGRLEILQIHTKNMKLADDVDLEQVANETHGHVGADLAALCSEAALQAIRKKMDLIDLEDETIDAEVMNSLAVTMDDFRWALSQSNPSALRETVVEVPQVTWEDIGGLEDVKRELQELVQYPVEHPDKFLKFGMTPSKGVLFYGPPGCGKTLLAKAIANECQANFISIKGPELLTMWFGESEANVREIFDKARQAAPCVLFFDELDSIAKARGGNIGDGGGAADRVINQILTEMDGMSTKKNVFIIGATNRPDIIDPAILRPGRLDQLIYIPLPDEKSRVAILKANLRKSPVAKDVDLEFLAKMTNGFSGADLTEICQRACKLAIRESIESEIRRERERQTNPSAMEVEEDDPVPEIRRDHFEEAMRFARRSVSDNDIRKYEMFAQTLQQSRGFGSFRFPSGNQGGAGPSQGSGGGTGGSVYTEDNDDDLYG

Chain of p97 (endogenous) (P55072 whole entry, the tested form may be a part): as the sequence (P55072 whole entry) above

Binder | binding result (p47 (endogenous)) | binding result (full-length p47) | other results
B1 | – | – | binding result (p47-UBX domain [1]): binds
B2 | binds | – | –
B3 | binds | – | –
B4 | binds | – | –
B5 | – | binds | Kd (p47-UBX domain [2]): ~7 nM; Kd (p37-UBX domain): ~4 nM
B6 | – | binds | Kd (p47-UBX domain [2]): ~3 nM; binding result (p37-UBX domain): no binding
B7 | – | binds | binding result (p47-UBX domain [3]): binds
B8 | binds | – | binding result (p97 (endogenous)): binds; reduction of the BRET ratio of the p97-N/p47-UBX pair [4]: ~15%
B9 | binds | – | –
B10 | binds | – | –
B11 | – | – | binding result (full-length human p97): binds
B12 | – | binds | binding result (p47-UBX domain [3]): binds
